Article PMC3807968 (2014)
[ ]: non-standard residue; d: D form. The star is where a group is joined. Butanoyl(4-Ph) = O=C(CCCc1ccccc1)*; Butanoyl(4-ethynyl) = C#CCCCC(=O)*

Molecular target: T1, ligand 5 on uncrosslinked micelles, 5% loading (5-UXL) (not fully specified; also: uncrosslinked micelle)
T1 chain: {Butanoyl(4-Ph)}-H[dF]RWGK(Butanoyl(4-ethynyl))-NH2
Experiment: Eu-NDP-α-MSH time-resolved fluorescence whole-cell competition binding

Ki: 12 nM
B1: Melanocortin 1 receptor (protein)
chain: MAVQGSQRRLLGSLNSTPTAIPQLGLAANQTGARCLEVSISDGLFLSLGLVSLVENALVVATIAKNRNLHSPMYCFICCLALSDLLVSGSNVLETAVILLLEAGALVARAAVLQQLDNVIDVITCSSMLSSLCFLGAIAVDRYISIFYALRYHSIVTLPRARRAVAAIWVASVVFSTLFIAYYDHVAVLLCLVVFFLAMLVLMAVLYVHMLARACQHAQGIARLHKRQRPVHQGFGLKGAVTLTILLGIFFLCWGPFFLHLTLIVLCPEHPTCGCIFKNFNLFLALIICNAIIDPLIYAFHSQELRRTLKEVLTCSW
